The target of experiment [1] is His6-OptoMB_(V416I_G528A_N538E) fused to an N-terminus SUMO tag, purified (Avena sativa, UniProt O49003 408-543, V416I | G528A | N538E). Description: BLI; light conformation (lit-mimetic mutant).
Experiment [2] addresses OptoMB_(C450V), light-insensitive, His-tagged, purified (Avena sativa, UniProt O49003 408-543, C450V). Description: BLI; dark conformation (C450V).

B1: YFP-SH2, purified (fusion of yellow fluorescent protein and SH2) (domain or fragment)
chain: SLEKHSWYHGPVSRNAAEYLLSSGINGSFLVRESESSPGQRSISLRYEGRVYHYRINTASDGKLYVSSESRFNTLAELVHHHSTVADGLITTLHYPAPKRNKPTVYGVSPNY
B1: in experiment [1], the Kd was 21.7 µM and the koff was 0.0489 s⁻¹. In addition, the koff in experiment [2] came to 0.00753 s⁻¹.

Values taken from doi:10.1101/2020.03.08.831909 (2020).
